Experimental data taken from publication PMC8938331 (Molecular Metabolism, 2022).

Tests used:
[1] = biological target: T1, Recombinant mouse MD2 (Beijing ABIOCENTER) (mouse, UniProt Q9JHF9 19-160); assay: SPR
T1 sequence (looked up): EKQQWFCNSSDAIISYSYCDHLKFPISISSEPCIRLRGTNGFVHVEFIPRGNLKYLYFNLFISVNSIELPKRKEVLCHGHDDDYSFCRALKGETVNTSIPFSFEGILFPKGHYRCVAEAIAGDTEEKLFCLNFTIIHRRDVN

[2] = biological target: T2, Recombinant mouse TLR4 (R&D system) (mouse, UniProt Q9QUK6 26-638); assay: SPR
T2 sequence (looked up): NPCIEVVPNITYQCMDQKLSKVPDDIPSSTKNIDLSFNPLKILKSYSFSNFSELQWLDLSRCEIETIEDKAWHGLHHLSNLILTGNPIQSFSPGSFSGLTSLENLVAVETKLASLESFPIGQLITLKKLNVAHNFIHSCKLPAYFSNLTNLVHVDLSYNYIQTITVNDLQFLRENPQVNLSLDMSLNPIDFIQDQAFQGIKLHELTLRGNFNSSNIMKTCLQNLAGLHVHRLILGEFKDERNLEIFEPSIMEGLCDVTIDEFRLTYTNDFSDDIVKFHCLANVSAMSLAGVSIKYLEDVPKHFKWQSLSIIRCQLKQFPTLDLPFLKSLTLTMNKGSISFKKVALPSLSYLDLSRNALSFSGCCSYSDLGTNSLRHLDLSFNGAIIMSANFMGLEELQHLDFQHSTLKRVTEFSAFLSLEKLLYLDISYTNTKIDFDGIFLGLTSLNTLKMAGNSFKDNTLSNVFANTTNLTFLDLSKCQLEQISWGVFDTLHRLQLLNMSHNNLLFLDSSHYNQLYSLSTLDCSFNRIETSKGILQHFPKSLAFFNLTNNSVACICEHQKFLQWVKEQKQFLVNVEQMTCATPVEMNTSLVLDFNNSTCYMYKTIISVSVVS

- Kd [1]: 123 nM
- Kd [2]: 497 nM
B1: Mouse serum amyloid A1 (residues 19-122), recombinant (natural protein, UniProt P05366 19-122, looked up)
chain: GGFFSFVHEAFQGAGDMWRAYTDMKEANWKNSDKYFHARGNYDAAQRGPGGVWAAEKISDGREAFQEFFGRGHEDTIADQEANRHGRSGKDPNYYRPPGLPDKY
